Measurements reported in patent US20160207973A1 (Pfizer, published 2016).
Read-outs that look alike come from different tables or passages of the source. Each block holds one binder with its values, some of them ahead of it.

B2: wild type BMP2 homodimer (ligand)
chain: QAKHKQRKRLKSSCKRHPLYVDFSDVGWNDWIVAPPGYHAFYCHGECPFPLADHLNSTNHAIVQTLVNSVNSKIPKACCVPTELSAISMLYLDENEKVVLKNYQDMVVEGCGCR
modifications: N-linked glycan at N56 (CHO-produced)
notes: also called BMP2WT; WT BMP2
B4: ALK6 receptor-human-IgG1-Fc fusion protein (Fc fusion, UniProt O00238 14-126, looked up)
chain: KKEDGESTAPTPRPKVLRCKCHHHCPEDSVNNICSTDGYCFTMIEEDDSGLPVVTSGCLGLEGSDFQCRDTPIPHQRRSIECCTERNECNKDLHPTLPPLKNRDFVDGPIHHR
notes: extracellular domain; See note of m11; also called BMPRIb; not shown: human IgG1 Fc
B5: ALK2 receptor-human-IgG1-Fc fusion protein (Fc fusion, UniProt Q04771 21-123, looked up)
chain: MEDEKPKVNPKLYMCVCEGLSCGNEDHCEGQQCFSSLSINDGFHVYQKGCFQVYEQGKMTCKTPPSPGQAVECCQGDWCNRNITAQLPTKGKSFPGTQNFHLE
notes: extracellular domain; also called ActRIa; ActRI; not shown: human IgG1 Fc
B6: Noggin (other, UniProt Q13253 28-232, looked up)
chain: QHYLHIRPAPSDNLPLVDLIEHPDPIFDPKEKDLNETLLRSLLGGHYDPGFMATSPPEDRPGGGGGAAGGAEDLAELDQLLRQRPSGAMPSEIKGLEFSEGLAQGKKQRLSKKLRRKLQMWLWSQTFCPVLYAWNDLGSRFWPRYVKVGSCFSKRSCSVPEGMVCKPSKSVHLTVLRWRCQRRGGQRCGWIPIQYPIISECKCSC
B9: designer BMP-GER (ligand)
chain: QAKHKQRKRLKSSCKRHPLYVDFSDVGWNDWIIAPRGYAAFYCDGECSFPLNAHMNATNHAIVQTLVHLMNPEYVPKPCCAPTELNAISVLYFDDNSNVILKNYQDMVVEGCGCR
notes: also called BMPGE P36R
B10: ActRIIB receptor-human-IgG1-Fc fusion protein (Fc fusion, UniProt Q13705 19-137, looked up)
chain: SGRGEAETRECIYYNANWELERTNQSGLERCEGEQDKRLHCYASWRNSSGTIELVKKGCWLDDFNCYDRQECVATEENPQVYFCCCEGNFCNERFTHLPEAGGPEVTYEPPPTAPTLLT
notes: extracellular domain; See note of m11; also called ATRIIB; not shown: human IgG1 Fc
B11: ALK3 receptor-human-IgG1-Fc fusion protein (Fc fusion, UniProt P36894 24-152, looked up)
chain: QNLDSMLHGTGMKSDSDQKKSENGVTLAPEDTLPFLKCYCSGHCPDDAINNTCITNGHCFAIIEEDDQGETTLASGCMKYEGSDFQCKDSPKAQLRRTIECCRTNLCNQYLQPTLPPVVIGPFFDGSIR
notes: extracellular domain; See note of m11; also called BMPRIa; not shown: human IgG1 Fc
B12: BMPRII receptor-human-IgG1-Fc fusion protein (Fc fusion, UniProt Q13873 27-150, looked up)
chain: SQNQERLCAFKDPYQQDLGIGESRISHENGTILCSKGSTCYGLWEKSKGDINLVKQGCWSHIGDPQECHYEECVVTTTPPSIQNGTYRFCCCSTDLCNVNFTENFPPPDTTPLSPPHSFNRDET
notes: extracellular domain; See note of m11; also called BMPR IIA; BMPRIIA; not shown: human IgG1 Fc

Experiments:
[1] = molecular target: T1, ALK2 receptor-human-IgG1-Fc fusion protein (human), Q04771; assay: BLI (Octet), receptor-Fc on anti-human IgG tips; settings: remark: other sources report otherwise
T1 chain: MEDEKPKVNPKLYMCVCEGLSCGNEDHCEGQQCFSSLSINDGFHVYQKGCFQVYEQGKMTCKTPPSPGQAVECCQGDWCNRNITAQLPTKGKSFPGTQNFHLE

[2] = molecular target: B12; assay: BLI (Octet), receptor-Fc on anti-human IgG tips
Experimental: (§1) The Octet QK analysis was performed at […] in TBS with 0.1% Tween-20. Samples were agitated at 1000 rpm. […] Each BMP was prepared as a sevenfold serial dilution (typically 200-3 nM in singlicate) plus buffer blanks. Each Receptor/BMP binding pair was run at least in duplicate. Association was monitored for 10 min and dissociation was followed for […] into buffer alone. Kinetic parameters (kon and koff) and affinities (KD) were calculated using the Octet Data Analysis software 6.0 using a partial binding 1:1 model following manufacturer's instructions.

[3] = molecular target: B12; assay: BLI (Octet), receptor-Fc on anti-human IgG tips; remark: listed apart in the source
Experimental: as §1

[4] = molecular target: B4; assay: BLI (Octet), receptor-Fc on anti-human IgG tips
Experimental: as §1

[5] = molecular target: T2, ActRIIA receptor-human-IgG1-Fc fusion protein (human, UniProt P27037 20-135, limits assumed); assay: BLI (Octet), receptor-Fc on anti-human IgG tips
T2 construct: extracellular domain; See note of m11; not shown: human IgG1 Fc
T2 sequence (P27037 20-135 limits assumed): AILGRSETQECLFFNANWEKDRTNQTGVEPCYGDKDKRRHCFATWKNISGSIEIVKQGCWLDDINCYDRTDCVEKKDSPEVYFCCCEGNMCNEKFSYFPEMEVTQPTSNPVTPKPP
Experimental: as §1

[6] = molecular target: B10; assay: BLI (Octet), receptor-Fc on anti-human IgG tips
Experimental: as §1

[7] = molecular target: B4; assay: BLI (Octet), receptor-Fc on anti-human IgG tips; remark: listed apart in the source
Experimental: as §1

[8] = molecular target: T2, ActRIIA receptor-human-IgG1-Fc fusion …; assay: BLI (Octet), receptor-Fc on anti-human IgG tips; remark: listed apart in the source
Experimental: as §1

[9] = molecular target: B10; assay: BLI (Octet), receptor-Fc on anti-human IgG tips; remark: listed apart in the source
Experimental: as §1

[10] = molecular target: B5; assay: BLI (Octet), receptor-Fc on anti-human IgG tips; Table 12, sign printed '<'
Experimental: as §1

wild type BMP2 homodimer [11] = molecular target: B2; assay: BLI (Octet), receptor-Fc on anti-human IgG tips
Experimental: as §1

wild type BMP6 homodimer [12] = molecular target: T3, wild type BMP6 homodimer (Homo sapiens (Human), UniProt P22004 375-513, N-linked glycan at N80 (CHO-produced)); assay: BLI (Octet), receptor-Fc on anti-human IgG tips
T3 construct: Produced in CHO cells; also called WT BMP6; BMP6/6
T3 sequence: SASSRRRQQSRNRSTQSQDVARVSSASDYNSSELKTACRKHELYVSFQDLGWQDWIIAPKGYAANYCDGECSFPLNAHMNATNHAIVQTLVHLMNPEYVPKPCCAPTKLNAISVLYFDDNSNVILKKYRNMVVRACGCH
Experimental: as §1

[13] = molecular target: T4, wild type BMP2/6 heterodimer (human, UniProt P12643 283-396; P22004 375-513); assay: BLI (Octet), receptor-Fc on anti-human IgG tips
Experimental: as §1

wild type BMP2 homodimer [14] = molecular target: B2; assay: BLI (Octet), receptor-Fc on anti-human IgG tips; remark: listed apart in the source
Experimental: as §1

wild type BMP6 homodimer [15] = molecular target: T3, wild type BMP6 homodimer; assay: BLI (Octet), receptor-Fc on anti-human IgG tips; remark: listed apart in the source
Experimental: as §1

[16] = molecular target: T4, wild type BMP2/6 heterodimer; assay: BLI (Octet), receptor-Fc on anti-human IgG tips; remark: listed apart in the source
Experimental: as §1

wild type BMP6 homodimer [17] = molecular target: T3, wild type BMP6 homodimer; assay: BLI (Octet), receptor-Fc on anti-human IgG tips; Table 13: weak binding, 700 nM
Experimental: as §1

designer BMPE = molecular target: T5, designer BMPE (N-linked glycan at N56 (CHO-produced)); assay: cell-based or functional assay
T5 chain: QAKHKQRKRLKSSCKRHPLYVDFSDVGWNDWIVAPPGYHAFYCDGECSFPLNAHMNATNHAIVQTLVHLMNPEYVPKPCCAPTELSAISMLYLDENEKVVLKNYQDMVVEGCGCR

designer BMP-GER = molecular target: B9; assay: cell-based or functional assay
[18] = molecular target: B10; assay: ActRIIb affinity; method not given
Noggin = molecular target: B6; assay: Noggin affinity; method and unit not stated
[19] = molecular target: B5; assay: BLI (Octet), receptor-Fc on anti-human IgG tips
Experimental: as §1

[20] = molecular target: B11; assay: BLI (Octet), receptor-Fc on anti-human IgG tips
Experimental: as §1

Kd [1]: 250 nM
B1: wild type BMP2/6 heterodimer, P12643 283-396; P22004 375-513 (ligand)
chain 1: QAKHKQRKRLKSSCKRHPLYVDFSDVGWNDWIVAPPGYHAFYCHGECPFPLADHLNSTNHAIVQTLVNSVNSKIPKACCVPTELSAISMLYLDENEKVVLKNYQDMVVEGCGCR
chain 2: SASSRRRQQSRNRSTQSQDVARVSSASDYNSSELKTACRKHELYVSFQDLGWQDWIIAPKGYAANYCDGECSFPLNAHMNATNHAIVQTLVHLMNPEYVPKPCCAPTKLNAISVLYFDDNSNVILKKYRNMVVRACGCH

Binder: B2
Kd [2]: 62 nM | Kd [3]: 62 nM

Kd [4]: 1 nM | Kd [5]: 2 nM | Kd [6]: 0.5 nM | Kd [2]: 4 nM | Kd [7]: 1 nM | Kd [8]: 2 nM | Kd [9]: 0.5 nM | Kd [3]: 4 nM | Kd [10]: > 1000 nM
B3: designer BMPG (ligand)
chain: QAKHKQRKRLKSSCKRHPLYVDFSDVGWNDWIIAPKGYAAFYCHGECPFPLADHLNSTNHAIVQTLVNSVNSKIPKACCVPTELNAISVLYFDDNSNVILKNYQDMVVEGCGCR
notes: Produced in CHO cells; dimer as the other BMPs

Binder: B4
Kd (wild type BMP2 homodimer [11]): 1 nM | Kd (wild type BMP6 homodimer [12]): 20 nM | Kd [13]: 0.5 nM | Kd (wild type BMP2 homodimer [14]): 1 nM | Kd (wild type BMP6 homodimer [15]): 20 nM | Kd [16]: 0.5 nM

Binder: B5
Kd (wild type BMP6 homodimer [17]): 700 nM

Binder: B6
IC50 (read off the curve) (designer BMPE): ~0.09 µg/mL | IC50 (read off the curve) (designer BMP-GER): ~0.04 µg/mL

Kd [18]: 0.5 nM | Noggin Affinity (Noggin): 6
B7: designer BMP-E-NR (ligand)
chain: QAKHKQRKRLKSSCKRHPLYVDFSDVGWNDWIVAPPGYHAFYCDGECSFPLNAHMNATNHAIVQTLVHLMNPEYVPKPCCAPTKLRPMSMLYYDDGQNIIKKDIQNMIVEECGCS

Kd [18]: 0.07 nM | Noggin Affinity (Noggin): 7.5
B8: designer BMP-GER-NR (ligand)
chain: QAKHKQRKRLKSSCKRHPLYVDFSDVGWNDWIIAPRGYAAFYCDGECSFPLNAHMNATNHAIVQTLVHLMNPEYVPKPCCAPTKLRPMSMLYYDDGQNIIKKDIQNMIVEECGCS

Binder: B9
Kd [18]: 2 nM | Noggin Affinity (Noggin): 4 | Kd [19]: 2 nM | Kd [20]: 2 nM | Kd [7]: 1 nM | Kd [8]: 2 nM | Kd [9]: 0.5 nM | Kd [3]: 3.5 nM

Binder: B10
Kd (wild type BMP6 homodimer [12]): 0.5 nM | Kd [13]: 1 nM | Kd (wild type BMP6 homodimer [15]): 0.5 nM | Kd [16]: 1 nM

Binder: B11
Kd (wild type BMP6 homodimer [12]): 11 nM | Kd (wild type BMP6 homodimer [15]): 11 nM

Binder: B12
Kd (wild type BMP6 homodimer [12]): 4 nM | Kd [13]: 3 nM | Kd (wild type BMP6 homodimer [15]): 4 nM | Kd [16]: 3 nM
